The record followed here is article PMC3871432 (The Journal of Cell Biology, 2013).

The term stoichiometry N denotes the number of molecules, sites or subunits per partner or assembly.

One series concerns the target She2p (Saccharomyces cerevisiae, UniProt P36068 1-246). The series is described as follows: SLS.
Series [1] addresses T1, She2p;She3p;Myo4p-C (Saccharomyces cerevisiae;Saccharomyces …, UniProt P36068;P38272;P32492 1-246;1-425;978-1471, ||). The series is described as follows: SEC. (In general: Size exclusion chromatography separates by hydrodynamic size, large species first.)
For series [2], the target named is T2, She2p;She3p;Myo4p full-length (Saccharomyces cerevisiae;Saccharomyces …, UniProt P36068;P38272;P32492 1-246;1-425;1-1471, ||). Nature of the series: single-molecule TIRFM.
The target in series [3] is T1, She2p;She3p;Myo4p-C. Nature of the series: SLS.
The series “cross-linking” deals with the molecule itself. Nature of the series: cross-linking.
The target of series [4] is T3, Myo4p-C (amino acids 978–1,471) (S. cerevisiae, UniProt P32492 978-1471).
T3 sequence: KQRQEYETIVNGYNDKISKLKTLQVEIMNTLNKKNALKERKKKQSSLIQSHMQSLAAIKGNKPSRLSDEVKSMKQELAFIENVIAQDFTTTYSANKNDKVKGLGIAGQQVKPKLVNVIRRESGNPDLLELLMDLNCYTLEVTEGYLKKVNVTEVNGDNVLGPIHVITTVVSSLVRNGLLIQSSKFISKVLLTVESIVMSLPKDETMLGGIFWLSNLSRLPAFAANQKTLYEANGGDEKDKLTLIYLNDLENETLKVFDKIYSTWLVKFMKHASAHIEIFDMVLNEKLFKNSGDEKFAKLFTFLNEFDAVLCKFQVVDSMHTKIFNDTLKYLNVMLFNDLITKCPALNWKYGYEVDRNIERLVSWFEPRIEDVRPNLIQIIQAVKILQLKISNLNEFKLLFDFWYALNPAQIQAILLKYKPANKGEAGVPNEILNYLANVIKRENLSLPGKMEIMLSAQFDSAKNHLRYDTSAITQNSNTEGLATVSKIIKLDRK
Nature of the series: quantitative mass spectrometry with heavy isotope-labeled peptides.

Series [5] concerns the target T3, Myo4p-C (amino acids 978–1,471). Nature of the series: static light scattering coupled to SEC.
For series [6] the target is unchanged. Nature of the series: quantitative mass spectrometry with heavy isotope-labeled peptides. The source holds these as a separate data set.
The target is the same in series [7]. The series is described as follows: ITC. A general note: ITC needs no label: the signal is the heat of the interaction.
For series [8], the target named is T2, She2p;She3p;Myo4p full-length. Nature of the series: single-molecule TIRFM. This is another data set of the same source.
The target in series [9] is T1, She2p;She3p;Myo4p-C. Nature of the series: EMSA. In general terms: Mobility shift assays separate free from complexed probe on a gel.
The target of another series is T4, She3p;Myo4p-C (Saccharomyces cerevisiae;Saccharomyces …, UniProt P38272;P32492 1-425;978-1471, |).
T4 sequence 1: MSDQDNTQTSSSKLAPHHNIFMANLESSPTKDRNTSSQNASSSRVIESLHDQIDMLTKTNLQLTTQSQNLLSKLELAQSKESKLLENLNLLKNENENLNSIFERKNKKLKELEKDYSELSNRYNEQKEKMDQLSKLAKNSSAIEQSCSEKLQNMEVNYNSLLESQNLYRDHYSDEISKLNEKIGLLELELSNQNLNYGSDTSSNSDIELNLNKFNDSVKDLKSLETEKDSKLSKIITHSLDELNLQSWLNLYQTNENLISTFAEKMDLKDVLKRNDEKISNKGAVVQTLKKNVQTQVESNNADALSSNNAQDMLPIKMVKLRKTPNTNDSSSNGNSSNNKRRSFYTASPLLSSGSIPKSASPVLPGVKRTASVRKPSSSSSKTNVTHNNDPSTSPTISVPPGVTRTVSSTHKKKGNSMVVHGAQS
T4 sequence 2: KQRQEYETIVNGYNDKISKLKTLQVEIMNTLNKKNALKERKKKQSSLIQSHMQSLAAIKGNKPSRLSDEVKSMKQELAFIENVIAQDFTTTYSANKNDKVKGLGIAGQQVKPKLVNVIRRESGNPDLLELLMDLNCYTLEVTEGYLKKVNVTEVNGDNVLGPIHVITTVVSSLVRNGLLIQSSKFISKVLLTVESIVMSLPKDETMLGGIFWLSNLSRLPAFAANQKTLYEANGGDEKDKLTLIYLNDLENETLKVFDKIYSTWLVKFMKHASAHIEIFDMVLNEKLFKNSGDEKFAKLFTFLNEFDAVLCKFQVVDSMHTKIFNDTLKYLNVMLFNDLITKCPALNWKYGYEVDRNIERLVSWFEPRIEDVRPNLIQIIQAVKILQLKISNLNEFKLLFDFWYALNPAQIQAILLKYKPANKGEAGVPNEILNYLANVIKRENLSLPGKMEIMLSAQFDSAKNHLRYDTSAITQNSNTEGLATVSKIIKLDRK
The series is described as follows: EMSA.

Values joined by “and” are separate entries in the source; they are usually repeats but may differ in a detail not shown here. Equal values may be shown once. Read-outs that look alike come from different tables or passages of the source.

T1 sequence (P36068 whole entry, one chain of several): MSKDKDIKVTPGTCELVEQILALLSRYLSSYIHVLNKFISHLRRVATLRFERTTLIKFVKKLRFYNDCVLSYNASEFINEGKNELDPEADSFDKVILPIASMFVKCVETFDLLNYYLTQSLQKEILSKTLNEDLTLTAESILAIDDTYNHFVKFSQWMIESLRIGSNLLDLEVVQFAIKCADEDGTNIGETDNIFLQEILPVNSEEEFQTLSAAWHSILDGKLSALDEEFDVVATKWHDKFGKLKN
Chain of She2p (P36068 whole entry): as the sequence (P36068 whole entry, one chain of several) above
T2 sequence (P36068 whole entry, one chain of several): as above

B1: ASH1-E3-51 (structured_RNA)
RNA: AUGGAUAACUGAAUCUCUUUCAACUAAUAAGAGACAUUAUCACGAAACAAU
For the molecule B1, the binding result with She2p and in the series with She2p;She3p;Myo4p-C [1] was “binds” each time.

B2: IST2 + 22-nt 3' overhang (mixed)
RNA: GGGAUGCUGGAGUGAAGAAUGUCACGAACAAUUCUAAGACAACCGAAUCCUCUUCCUCUUCAUCGGCGGCAAAGGAAAAACCAAAA
DNA: TTTTGGTTTTTCCTTTGCCGCC
Consider B2, for which the binding result in [2] is listed as “binds”.

B3: ASH1-E3-77-tRNA (structured_RNA)
RNA: GGCUACGUAGCUCAGUUGGUUAGAGCAGCGGCCGAGAGAAUUGAUACAUGGAUAACUGAAUCUCUUUCAACUAAUAAGAGACAUUAUCACGAAACAAUUGUACAUUUCUCUUGGCCGCGGGUCACAGGUUCGAAUCCCGUCGUAGCCACCA
On to B3, for which the binding result with She2p and with She2p;She3p;Myo4p-C [3] was “binds” throughout.

B4: She3p N-terminal fragment (amino acids 1–234) (domain or fragment)
chain: MSDQDNTQTSSSKLAPHHNIFMANLESSPTKDRNTSSQNASSSRVIESLHDQIDMLTKTNLQLTTQSQNLLSKLELAQSKESKLLENLNLLKNENENLNSIFERKNKKLKELEKDYSELSNRYNEQKEKMDQLSKLAKNSSAIEQSCSEKLQNMEVNYNSLLESQNLYRDHYSDEISKLNEKIGLLELELSNQNLNYGSDTSSNSDIELNLNKFNDSVKDLKSLETEKDSKLSK
With B4, the binding result in “cross-linking” is “binds”.

B5: She3p, full-length (natural protein)
chain: MSDQDNTQTSSSKLAPHHNIFMANLESSPTKDRNTSSQNASSSRVIESLHDQIDMLTKTNLQLTTQSQNLLSKLELAQSKESKLLENLNLLKNENENLNSIFERKNKKLKELEKDYSELSNRYNEQKEKMDQLSKLAKNSSAIEQSCSEKLQNMEVNYNSLLESQNLYRDHYSDEISKLNEKIGLLELELSNQNLNYGSDTSSNSDIELNLNKFNDSVKDLKSLETEKDSKLSKIITHSLDELNLQSWLNLYQTNENLISTFAEKMDLKDVLKRNDEKISNKGAVVQTLKKNVQTQVESNNADALSSNNAQDMLPIKMVKLRKTPNTNDSSSNGNSSNNKRRSFYTASPLLSSGSIPKSASPVLPGVKRTASVRKPSSSSSKTNVTHNNDPSTSPTISVPPGVTRTVSSTHKKKGNSMVVHGAQS
With B5, the “stoichiometry N” value is 2.12 She3p:Myo4p-C and 2.23 She3p:Myo4p-C in [4]; 2 She3p/Myo4p-C in [5]; 2 in “cross-linking”; 2.56 She3p:Myo4p-C in [6]; 1.93 She3p:Myo4p in [7].

B6: ASH1-E3-77 + 3' overhang (mixed)
RNA: GGGAGAGAAUUGAUACAUGGAUAACUGAAUCUCUUUCAACUAAUAAGAGACAUUAUCACGAAACAAUUGUACAUUUCUCUCCUUGUCUGUGCUAAAUAAACUAC
DNA: GTAGTTTATTTAGCACAGACAAGG
Regarding B6, in [8], the binding result is “binds”.

B7: IST2-tRNA (structured_RNA)
RNA: GGCUACGUAGCUCAGUUGGUUAGAGCAGCGGCCGGAUGCUGGAGUGAAGAAUGUCACGAACAAUUCUAAGACAACCGAAUCCUCUUCCUCUUCAUCUGGCCGCGGGUCACAGGUUCGAAUCCCGUCGUAGCCACCA
Consider B7, for which the binding result with She2p was “binds”.

B8: ASH1-E3-77 (structured_RNA)
RNA: GGGAGAGAAUUGAUACAUGGAUAACUGAAUCUCUUUCAACUAAUAAGAGACAUUAUCACGAAACAAUUGUACAUUUCUCU
In the case of B8, the binding result with She2p;She3p;Myo4p-C [9] and in the series with She3p;Myo4p-C was “binds” each time.
